The record followed here is patent US20260250404A1.

The experiment addresses human FcγRIa on the cell surface (transfected CHO-S cells, M0/M1 macrophages, hMDM, FcγRI effector reporter cells) (human) (UniProt P12314). Description: flow cytometry on CHO-S cells transiently expressing human FcγRIa, PE goat anti-human IgG F(ab')2, % PE+ cells. In general terms: A flow cytometer gives signals particle by particle.

A word on the EC50 (read off the curve): it is the concentration giving half of the maximal effect. A low value points to greater potency.

Chain of human FcγRIa on the cell surface (transfected CHO-S cells, M0/M1 macrophages, hMDM, FcγRI effector reporter cells) (human) (P12314 16-374): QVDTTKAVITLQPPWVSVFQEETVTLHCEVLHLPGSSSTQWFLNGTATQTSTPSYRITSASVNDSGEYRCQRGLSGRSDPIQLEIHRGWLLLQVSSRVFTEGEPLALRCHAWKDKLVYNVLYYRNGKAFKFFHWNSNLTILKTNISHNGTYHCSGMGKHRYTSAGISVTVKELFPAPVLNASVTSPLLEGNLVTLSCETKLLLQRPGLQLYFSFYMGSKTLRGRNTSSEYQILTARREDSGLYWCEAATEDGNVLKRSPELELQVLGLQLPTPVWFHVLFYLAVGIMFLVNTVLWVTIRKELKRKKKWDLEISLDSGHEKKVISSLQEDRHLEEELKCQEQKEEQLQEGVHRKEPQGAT

For cemiplimab (antibody), the EC50 (read off the curve) is 0.3 µg/mL.
